Assay: soluble on expression in E. coli; label from the status in PepcDB or PDB records

| Sequence | soluble on expression in E. coli |
| --- | --- |
| AAKEEADSRISPGNIFEEKAKFLVMMESSIYAAKRGDALIAQILILAGRLSKNEAPKEALLFMEKTITGEIDLSVAKNLLIAYMRIRREEKQRDLNSVKNDDAIPSDINIDDLTNT | not soluble |
| AAVLTQDKNTPTYGPANGKVTVIEFFDYQCVYCSRLAPVMEQVIKAHPQTRFAFKEWPIFGGRWESSLEAAKTGLQIYQQKGADAYLAYHNGIYATGHNEGKLTTADIQQQAKKAGFDAKKAADVEPVLQSINDLAQEIGLSGTPGVIVMPTTGATEASITVFPGLADKASLEAAIKKAGG | not soluble |
| ADDILNVHRRNAKDPFAVGAVDAPLVITEFSDFECPFCARWSNQTEPTLMEEYVSKGLVRIEWNDLPVNGEHALAAAKAGRAAAAQGKFDEFRKALFEASRNVSGHPNNTLKDFERFARNAGVKDMERFSREAQDSTYDEVLTKAADYAHGLGVSGTPAFVVGTQYISGAQPTEEFIKVIESELKKSPTFSTPSSHQN | not soluble |
| ADDPIRMYFEPGHYTVMENCGEFEVRVVRRGDISTYASVEYETQDGTASAGTDFVGRKGLLSFPPGVDEQRFRIEVIDDDVFEEDECFYIRLFNPSEGVKLAVPMIATVMILDDDHAGIFAFTDSVFEITESVGRFE | soluble |
| ADEFGNGDALDLPVGKDAVNSLIRENSHIFSDTQCKVCSAVLISESQKLAHYQSRKHANKVRRYMAINQGEDSVPAKKFKAAPAEISDGEDRSKCCPVCNMTFSSPVVAESHYIGKTHIKNLRLREQ | soluble |
| ADLGTENLYFQSMKPSPEEAQLWSEAFDELLASKYGLAAFRAFLKSEFCEENIEFWLACEDFKKTKSPQKLSSKARKIYTDFIEKEAPKEINIDFQTKTLIAQNIQEATSGCFTTAQKRVYSLMENNSYPRFLESEFYQDLCKKPQ | soluble |
| ADQPSPTWGIDRIDQRNLPLDNNYHTDYDGSGVTAFVIDTGVLNTHNEFGGRASSGYDFIDNDYDATDCNGHGTHVAGTIGGSTYGVAKNVNVVGVRVLNCSGSGSNSGVIAGINWVKNNASGPAVANMSLGGGASQATDDAVNAAVAAGITFVVAAGNDNSNACNYSPARAADAITVGSTTSNDSRSSFSNYGTCLDIYAPGSSITSSWYTSNSATNTISGTSMASPHVAGVAALYLDENPNLSPAQVTNLLKTRATADKVTDAKTGSPNKLLFSLA | soluble |
| ADRHYSPIDRFLLQADSALRTLLPFSGQPARPSPAIVEPDGELSEEDTRHIAGLMRINHTGEVCAQALYQGQSLTAKLPEVREAMEEAAEEEIDHLAWCEQRIRQLGSRPSVLNPIFYGLSFGVGAAAGLVSDRVSLGFVAATEDQVCKHLDEHLAQIPQEDRKSRAILEQMRIDEEQHSSNALAAGGLRFPAPVKLGMSLLAKV | not soluble |
| ADVSAAVGATGQSGMTYRLGLSWDWDKSWWQTSTGRLTGYWDAGYTYWEGGDEGAGKHSLSFAPVFVYEFAGDSIKPFIEAGIGVAAFSGTRVGDQNLGSSLNFEDRIGAGLKFANGQSVGVRAIHYSNAGLKQPNDGIESYSLFYKIPI | soluble |
| AEVEHYEPLQVHVQLEKVYLDGDVSIEHKHEKVFSMDDFWAAYAGWTLVEQKKGYVLFRKQMDDISPLSKVNGYIGVSDNGVISTFHGRPEPASEPIQSFFQIDLERLESHMQKNLLKGIPFRTKAEFEDVIEHMKTYSG | soluble |
| AEVTQLSNGIVVATEHNPSAHTASVGVVFGSGAANENPYNNGVSNLWKNIFLSKENSAVAAKEGLALSSNISRDFQSYIVSSLPGSTDKSLDFLNQSFIQQKANLLSSSNFEATKKSVLKQVQDFEDNDHPNRVLEHLHSTAFQNTPLSLPTRGTLESLENLVVADLESFANNHFLNSNAVVVGTGNIKHEDLVNSIESKNLSLQTGTKPVLKKKAAFLGSEVRLRDDTLPKAWISLAVEGEPVNSPNYFVAKLAAQIFGSYNAFEPASRLQGIKLLDNIQEYQLCDNFNHFSLSYKDSGLWGFSTATRNVTMIDDLIHFTLKQWNRLTISVTDTEVERAKSLLKLQLGQLYESGNPVNDANLLGAEVLIKGSKLSLGEAFKKIDAITVKDVKAWAGKRLWDQDIAIAGTGQIEGLLDYMRIRSDMSMMRW | soluble |
| AEWSGEYISPYAEHGKKSEQVKKITVSIPLKVLKILTDERTRRKVNNLRHATNSELLCEAFLHAFTGQPLPDDADLRKERSDEIPEAAKEIMREMGINPETWEY | soluble |
| AFRGLRKGQFFDENALMLIATIAAFFVGAYEESVSIMVFYSAGEFLQKLAVSRSKKSLKALVDVAPNLAYLKKGDELVSVAPEDLRVNDIVVVKVGEKVPVDGVVVKGESLLDERALSGESMPVNVSENSKVLGGSLNLKAVLEIQVEKMYKDSSIAKVVDLVQ | not soluble |
| AFYINVVPDMVGGRLSSHDRDVLGLARQLAGAEGAVLAVVFGEHKETAFDSAGVDRLLLLDGNESDGYSPEQRVQGLRAVDNQFGPQRWVFPDSRTGGGELGRRFAASLGERPATRVWQVKGEHCTSRAGA | not soluble |
| AGHILLLEEEDEAATVVCEMLTAAGFKVIWLVDGSTALDQLDLLQPIVILMAWPPPDQSCLLLLQHLREHQADPHPPLVLFLGEPPVDPLLTAQASAILSKPLDPQLLLTTLQGLCPPN | soluble |
| AGHMQQEAVAPEDSAVVKLATDSFNEYIQSHDLVLAEFFAPWCGHCKNMAPEYVKAAETLVEKNITLAQIDCTENQDLCMEHNIPGFPSLKIFKNSDVNNSIDYEGPRTAEAIVQFMIKQSQPAVAVVADLPAYLANETFVTPVIVQSGKIDADFNATFYSMANKHFNDYDFVSAENADDDFKLSIYLPSAMDEPVVYNGKKADIADADVFEKWLQVEALPYFGEIDGSVFAQYVESGLPLGYLFYNDEEELEEYKPLFTELAKKNRGLMNFVSIDARKFGRHAGNLNMKEQFPLFAIHDMTEDLKYGLPQLSEEAFDELSDKIVLESKAIESLVKDFLKGDASPIVKSQEIFENQDSSVFQLVGKNHDEIVNDPKKDVLVLYYAPWCGHCKRLAPTYQELADTYANATSDVLIAKLDHTENDVRGVVIEGYPTIVLYPGGKKSESVVYQGSRSLDSLFDFIKENGHFDVDGKALYEEAQEKAAEEADADAELADEEDAIHDEL | soluble |
| AGSDEVNRNECKTVVPLHTWVLISNFKLSYNILRRADGTFERDLGEYLDRRVPANARPLEGVSSFDHIIDQSVGLEVRIYRAAAEGDAEEGAAAVTRPILEFLTDAPAAEPFPVIIFFHGGSFVHSSASSTIYDSLCRRFVKLSKGVVVSVNYRRAPEHRYPCAYDDGWTALKWVMSQPFMRSGGDAQARVFLSGDSSGGNIAHHVAVRAADEGVKVCGNILLNAMFGGTERTESERRLDGKYFVTLQDRDWYWKAYLPEDADRDHPACNPFGPNGRRLGGLPFAKSLIIVSGLDLTCDRQLAYADALREDGHHVKVVQCENATVGFYLLPNTVHYHEVMEEISDFLNANLYYGSHHHHHHHHHH | soluble |
| AHHHHHHGSAKRVHLFDWHKEHAKKIEEFAGWEMPIWYSSIKEEHLAVRNAVGVFDVSHMGEILFKGKDALKFLQYTTTNDISKPPAISGTYTLVLNERGAIKDETLVFNMGNNEYLMICDADAFEKLYAWFTYLKKTIEQFTKLDLEIELKTYDIAMFAVQGPKARDLAMDLFGIDINEMWWFQGRWVELDGIKMLLSRSGYTGENGFEVYIEDLNPYHPDEEKRGKPEKALHVWERILEEGQKYGIKPAGLGARDTLRLEAGYTLYGNDTKELQLLSTDIDEVTPLQANLEFAIYWDKDFIGKDALLKQKEKGLGRKLVHFKMLEKSVPREGYKVYANGELIGEVTSGTLSPLLNIGIGIAFVKEEYAKPGVEIEIDIRGTRKKAITVTPPFYDPKKYGLFREE | soluble |
| AHHHHHHGSDGLTAQEFLTLVKLERGMYLSKEEKDDVERIKEKNKRVLELIKDHHKDFDVYLTGHIDFDNLLTMYEIYKELKKRGVNVYYPGLFWANWREKGEIEYKIKNNAKILLVITQTISFGTSVDVGFFIHRKINEEEAKIVFCYTGPSYEFESLKTHPASIYIDYFTRDIEDAIEKTLEFLSL | soluble |
| AHHHHHHGSDSIIVYVSIHHKNTEKVAKVIAEVLNARLVKPWEIKPEELLKYDLIGFGSGIYYWKHHRALFELINKLPKVEGKKAFIFSTAGLNIPFINHRKLRKVLREKGFEIVGEFSCRGWDTNGWLAEIGGLNKGHPNEKDLENARKFAENLKASI | soluble |
| AHHHHHHGSEFFEVLKKRRSIRRFQDKPVPRELIEKLLEAAFLSPSSYNKRPCHFIVVDDREKLEALSKSKLGASGLKTAPVAIVVTADESKSDVWIEDASIAAEHIHLASYALGLASFWVQIRNRMHNETKTAEEYVRELLNIPENYRVLCIIGVGYPAEDKPPHGNEVFEWEKVSYNEFGKRFK | soluble |
| AHHHHHHGSGMKYLIKLKYIKPAQLAVNREQKLAEFYPIFEDGTLGRVEAKARVFLPEYSDFAKGLGFEVKKRRMITEDDYAYLRAMVYGVVMGVLRNPGDWRRLEERVLEMEPIELRYWASKFRNAYWKYKNMRKLMFLARRFMEVEMI | not soluble |
| AHHHHHHGSGSSRTFRTSWADLGNLAKSIPPHHHLNPFEGKWNKKLSKKAIIMWQINVNDNRKFLSDC | not soluble |
| AHHHHHHGSHKLKVSVSFSYGKKEIVKNVEFEGKVGEIIAIIGPNGAGKSTLLKCIAGILKPRGIIEYNGIDLTKLKPKERAKIVGYVPQSSYPEFAFTVEEFVELGTYAGKGDVDEAIRRVGLWEKRKEFITNLSGGEYQLTLIARALAQGGDIMLLDEPTSHLDINHTREIMEILQELKKEKLIIAVFHDLNLAINYADEIIVLKNGETAWKGKSKEISEEVIEATYGIKPRIVREDGIVAVLP | soluble |
| AHHHHHHGSILDVRGLKPPQPTLMILENLGKLKIGETLEVLGDKPFVDIIPKLEEAGYQVELNKVGEFFVLKVTKTEGSKELKMEVEECDEELKEITEDTNVAKLLKAYPESLDILVKYGFSPLQNPVLRKTLARTVTLKQAKKLIGMSDERFEEMMKELKKLEKR | soluble |
| AHHHHHHGSKILYPTDFSEVSQKALTECVPSIILGIGEGSELILLHVVDITASEIGALELAEVDKEELNNLASQLREKGIKVKPIVRIGIPSLEISEVAKEENVDLIIIPSKGENILRQMLLGSTASNLARITHKPVLLLRYEVENGEIKSLQDCSRIFEKPLVALDLSKCSEKIIETIKDLPGVREAVLFHVVDYGKVEELENNIKNAKEKLSKYGKLLPWKTKIEVQAGIASKGIIGAAIDNNVTLVVIGKKGRSVLKDLLLGSTAERVIRDCKLPTLLIPCE | not soluble |
| AHHHHHHGSKIPDDVRKDIPLTQEVIYFDNTATSLTPKPVIEAMDEYYLKYRANVHRGVHRLSQMATQKYEESRKVVADFINAKFEEIVFTKNTSESLNLVALGLEHTFKKGDKIVTTPYEHHSNLLPWQRLAKKLGLKLEFIEGDDEGNLDLSDAEKKIKGAKLVAVQHVSNALGVIHEVEELGRMAKEEGAIFVVDAAQSVGHMEVDVKKLNADFLAFSGHKGPMGPTGIGVLFISEEYFDVFDPPLIGGGTIEDVDLCCYKLTEPPERFEAGTPNIGGAIGLAAGIKYIEKIGIEKIEKQERKLVKRTTEGLDELEIPWYGPRNLDKHAGVVSFNVPPLHPHDVAAVLDEHKIMVRSGHHCALPVMKKLGINGTVRASFHVYNSVEEVEIFLGVLEDLVRKIRGAL | soluble |

— the DeepSol protein solubility set
